Measured values as given in patent publication US5525708, “Covalent dimer of kit ligand” (CytoMed, Inc., dated 1996).

Key:
[1] = molecular target: c-kit proto-oncogene (receptor of KL) on murine cells (murine, UniProt P05532); test: cell-based or functional assay
[2] = molecular target: c-kit proto-oncogene (receptor of KL) on human cells (human, UniProt P10721); test: cell-based or functional assay

B1: murine covalent dimer kit ligand (KL-CD), biologically active form (ligand)
chain: MMKKTQTWIITCIYLQLLLFNPLVKTKEICGNPVTDNVKDITKLVANLPNDYMITLNYVAGMDVLPSHCWLRDMVIQLSLSLTTLLDKFSNISEGLSNYSIIDKLGKIVDDLVLCMEENAPKNIKESPKRPETRSFTPEEFFSIFNRSIDAFKDFMVASDTSDCV
modifications: at least one intermolecular disulfide bond between one of the four cysteines (4, 43, 89, 138) of one monomer and one of the four cysteines of the other monomer; which cysteines is not determined
With B1 the “proliferation of murine mast cells (BMMC), 3H-thymidine incorporation” value [1] was 10 fold and the “proliferation of human cell lines (M07e), 3H-thymidine incorporation” value [2] was 10 fold.
